# Measurements reported in patent US11260100B2, “Compositions targeting the interaction domain between p27Kip1 and Brk and methods of use thereof to inhibit p27 Y phosphorylation and cdk4 activity” (The Research Foundation for the State University of New York, priority 2014, dated 2022).
# Columns and labels:
# MCF7-ALT cells = test: Long-term proliferation arrest at IC100 (FIG. 15A); type: cell-based, human; conditions: IC100 Palbociclib, doxycycline induced ALT, replenished every two days
# Procedure: FIGS. 15A-15C: ALT and PD treatment increases senescence, a clinical goal. FIG. 15A: MCF7-ALT cells were treated with IC100 concentration of Palbociclib (PD) or doxycycline to induce ALT. Drugs were replenished every two days and proliferation was determined by cell counting as indicated. Proliferation rates were standardized to the rate of proliferation seen in DMSO treated cells (control). PD treated cells were arrested for 10 days, before escape (proliferation) was detected. ALT expressing cells were arrested for 18 days before escape (proliferation) was detected. ALT expressing and PD treated cells were arrested for 30 days, with no escape detected. […] Proliferation was assessed by counting. […] Viability was measured by trypan blue staining and the ALT expressing, PD treated cells that weren't growing were viable. […]
# MCF7-ALT cells were treated with a IC100 concentration of Palbociclib (PD) or doxycycline to induce ALT. Drugs were replenished every two days and proliferation was determined by cell counting as indicated. […] PD treated cells were arrested for 10 days, before escape (proliferation) was detected. ALT expressing cells were arrested for 18 days before escape (proliferation) was detected. ALT expressing and PD treated cells were arrested for 30 days, with no escape detected. […] Proliferation was assessed by counting. […]
# [1] = molecular target: T1, Brk phosphorylation of p27 (Homo sapiens, UniProt P46527+Q13882); test: In vitro Brk phosphorylation of p27 with competitor, pY88/pY74 immunoblot; type: biochemical; conditions: increasing amounts of competitor
# T1 construct: were incubated with p27 before the addition of full length Brk and ATP; We incubated full length p27 with Src or Brk in the presence of ATP; purchased SignalChem (GST-PTK6/Brk) or Invitrogen (His-PTK6/Brk); host or cells: p27 made in house in E. coli
# Procedure: FIGS. 3A-3D: SH3:PxxP interaction is required for p27 Y88 phosphorylation. (FIG. 3A) p27 and Brk were incubated with ATP and with increasing concentrations of the PxxP competitor, F58-106, followed by immunoblot analysis with pY88, pY74 and p27 antibodies. Lane 5: +equimolar amount of F58-106 and p27, lane 6: ++2.5×F58-106, lane 7: +++5×F58-106, lane 8: ++++10×F58-106. (FIG. 3B) GST-Brk, p27 and F58-106 were incubated, immunoprecipitated with GST antibodies, followed by immunblot analysis with GST or p27 antibodies. (FIG. 3C) Increasing amounts of GST-SH3, GST-SH2 or GST peptides were incubated with p27, followed by immunoblot analysis with pY88, pY74, p27 and GST antibodies. Lanes 3, 5, 7: 2.5× competitor, lanes 4, 6, […]: 5× competitor. (FIG. 3D) GST-SH3, GST-SH2 or GST peptides were incubated with p27 or ΔK1/K3, followed by metal agarose chromatography and immunoblot analysis with GST and p27 antibodies. Loading control: GST peptides added to the reaction which are not representative of association.
# FIGS. 8A-8G: Alt Brk (SEQ ID NO: 17) acts as an endogenous inhibitor of Brk. […]
# To directly verify this, we expressed a Flag-tagged Alt-Brk in bacteria and purified this 15 Kd protein (FIG. 8A). When p27 was incubated with Brk, Y88 and Y74 phosphorylation was detected by immunoblot analysis (FIG. 8A, lane 3). […]
# T1 sequence (Q13882 whole entry): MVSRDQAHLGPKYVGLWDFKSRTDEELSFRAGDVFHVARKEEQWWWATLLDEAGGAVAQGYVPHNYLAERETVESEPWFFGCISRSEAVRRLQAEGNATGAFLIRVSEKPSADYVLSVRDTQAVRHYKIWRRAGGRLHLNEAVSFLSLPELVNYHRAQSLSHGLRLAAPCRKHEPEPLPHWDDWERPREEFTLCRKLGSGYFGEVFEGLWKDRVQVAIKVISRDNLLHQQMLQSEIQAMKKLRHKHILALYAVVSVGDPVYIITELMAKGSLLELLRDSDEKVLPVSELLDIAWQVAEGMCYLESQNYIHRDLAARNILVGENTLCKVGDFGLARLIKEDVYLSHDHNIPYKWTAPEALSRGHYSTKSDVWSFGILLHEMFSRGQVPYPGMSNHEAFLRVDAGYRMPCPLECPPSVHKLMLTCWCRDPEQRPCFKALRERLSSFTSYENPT
# T1 sequence (P46527 whole entry): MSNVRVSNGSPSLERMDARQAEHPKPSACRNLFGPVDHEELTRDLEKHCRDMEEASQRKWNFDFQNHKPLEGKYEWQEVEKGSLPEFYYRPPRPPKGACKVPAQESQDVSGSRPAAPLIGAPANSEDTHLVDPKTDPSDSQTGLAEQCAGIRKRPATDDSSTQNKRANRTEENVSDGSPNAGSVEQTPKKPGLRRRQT
molecule,measurement,setting,value
"Alt-Brk: alternative splice variant of Brk (SEQ ID NO: 17), 15 KD protein with SH3 domain, lacks kinase domain (protein, listed as Homo sapiens) MVSRDQAHLGPKYVGLWDFKSRTDEELSFRAGDVFHVARKEEQWWWATLLDEAGGAVAQGYVPHNYLAERETVESEPAGHAGCAALQDLAACRGPAAPERGGVLPQPARACELPQGPEPVPRPAAGRALPEARA",time arrested before escape (proliferation),MCF7-ALT cells,18 days
same,p27 Y74 phosphorylation by Brk,[1],not affected
same,p27 Y88 phosphorylation by Brk,[1],decreased
